B1: XA8635 (VHH)
VHH: QVQLVESGGGLVQAGGSLRLSCAASGSISSISTMGWYRQAPGNERELVAAITSGGSTNYADSVKGRFTISRDNAKNTVYLQMNSLKPEDTAVYYCNFKYYSGSYFYKSEYDYWGQGTQVTVSS
B2: XA8639 (VHH)
VHH: QVQLVESGGGLVRPGGSLRLSCVDSERTSYPMGWFRRAPGKEREFVASITWSGIDPTYADSVADRFTTSRDVANNTLYLQMNSLKHEDTAVYYCAARAPVGQSSSPYDYDYWGQGTQVTVSS

How the values were obtained:
[1] = molecular target: Purified Mor1 (Example 9) (Mus musculus (Mouse)) (UniProt P42866); experiment: method not told at that place (Ki; presumably radioligand displacement)
[2] = molecular target: Purified Mor1 (Example 9) (Mus musculus (Mouse)) (UniProt P42866); experiment: cell-based or functional assay

Chain of Purified Mor1 (Example 9) (Mus musculus (Mouse)) (P42866 52-358, tags or fused parts left off): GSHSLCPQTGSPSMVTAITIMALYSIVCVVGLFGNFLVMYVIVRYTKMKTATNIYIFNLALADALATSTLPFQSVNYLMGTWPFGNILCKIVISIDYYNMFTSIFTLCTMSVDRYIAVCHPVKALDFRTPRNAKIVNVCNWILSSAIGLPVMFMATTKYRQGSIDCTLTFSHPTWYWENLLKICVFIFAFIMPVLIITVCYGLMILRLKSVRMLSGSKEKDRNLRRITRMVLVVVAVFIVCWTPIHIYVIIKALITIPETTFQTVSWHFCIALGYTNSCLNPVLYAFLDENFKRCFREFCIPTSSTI

| Binder | Ki [1] | enhancement of BU72 affinity for Mor1 in HDL particles [2] | inhibition constant (Ki) of agonist BU72 in [3H]-diprenorphine competition on Mor1 in HDL particles, in presence of 5 µM XA8639 [2] |
| --- | --- | --- | --- |
| B1 | 12 nM |  |  |
| B2 |  | 176 fold | 8.5 pM |

— patent US20170183404A1
